The record followed here is publication PMC8756792.

This assay concerns the target Ribulose-5-phosphate epimerase of Leishmania donovani (Leishmania donovani). Nature of the assay: SEC.

Regarding “Ribulose-5-phosphate epimerase of Leishmania donovani (enzyme)”, the stoichiometry N is 2.
